Data from patent publication US20250073239A1, “COMBINATION OF AN IMMUNOCYTOKINE COMPRISING IL-12 AND A KINASE INHIBITOR” (PHILOGEN S.P.A., priority 2022, published 2025).

Assays:
[1] = humans, patients with cancer; cited from earlier work
[2] = rodents, cited from earlier work
[3] = system: MC-38 cells, derived from C57BL/6 murine colon adenocarcinoma cells; assay: Therapy experiments: tumour volume in MC-38 tumor-bearing mice; format: in vivo, C57BL/6 mice; conditions: on day 8, 11 and 14
Protocol: MC-38 cells, derived from C57BL/6 murine colon adenocarcinoma cells were cultured in DMEM medium supplemented with Fetal Bovine Serum (10%) and antibiotic-antimycotic (1%) following the supplier's protocol and kept in culture for no longer than 10 passages with a confluence lower than 90%. Eight-week-old female C57BL/6 mice were used for the experiment.
MC-38 cells were grown to 80% confluence and detached with Trypsin-EDTA 0.05%. Cells were washed, counted and re-suspended in HBSS to a final concentration of 1×10^7 cells ml^−1. Aliquots of 1×10^6 cells (100 μl of the suspension) were injected subcutaneously in the right flank of each animal. Tumor volume was determined with the following formula: (length×width^2×0.5) measured with a caliper.
Preparation of the tumor cells and tumor implantation have been done as described above in chapters 2.1 and 2.2.

[4] = Toxicity monitored by daily body weighing of MC-38 tumor-bearing mice; conditions: for weight loss: alone or with Ruxolitinib 75 mg/kg s.c., day 8, 11, 14
Protocol: When tumors reached an average of about 50-100 mm^3, MC-38 tumor-bearing mice were randomized, and different treatments were started. Eight different groups (4/5 mice per group) received the following treatments: • (i) i.v. vehicle on day 8, 11 and 14 after tumor implantation • (ii) s.c. Ruxolitinib (75 mg/kg) on day 8, 11 and 14 after tumor implantation • (iii) i.v. L19-IL12 (0.6 mg/kg) on day 8, 11 and 14 after tumor implantation • (iv) i.v. L19-IL12 (0.9 mg/kg) on day 8, 11 and 14 after tumor implantation • (v) i.v. L19-IL12 (1.2 mg/kg) on day 8, 11 and 14 after tumor implantation • (vi) s.c Ruxolitinib (75 mg/kg) and i.v. L19-IL12 (0.6 mg/kg) on day 8, 11 and 14 after tumor implantation • (vii) s.c. Ruxolitinib (75 mg/kg) and i.v. L19-IL12 (0.9 mg/kg) on day 8, 11 and 14 after tumor implantation • (viii) s.c. Ruxolitinib (75 mg/kg) and i.v. L19-IL12 (1.2 mg/kg) on day 8, 11 and 14 after tumor implantation
Ruxolitinib was always administered 10 minutes prior the subsequent administration of L19-IL12 at the three different dose levels.
Toxicity of the different treatments was monitored by daily body weighing and general appearance of the animals.

Molecule: recombinant human IL-12: recombinant human interleukin-12 cytokine tested in clinical trials in patients with cancer
- maximal tolerated dose [1]: 0.5 μg/kg of body weight

Molecule: N#CC[C@H](C1CCCC1)n1cc(-c2ncnc3[nH]ccc23)cn1 [Ruxolitinib]
- blood half-life ([2]; after injection): less than 1 hour
- time to complete wash-out from blood [2]: ≤ 24 h

B1: L19-IL12: fusion protein of the anti-EDB L19 antibody in single chain diabody format fused to single-chain murine IL-12 (SEQ ID NO 19) (protein)
chain: MWELEKDVYVVEVDWTPDAPGETVNLTCDTPEEDDITWTSDQRHGVIGSGKTLTITVKEFLDAGQYTCHKGGETLSHSHLLLHKKENGIWSTEILKNFKNKTFLKCEAPNYSGRFTCSWLVQRNMDLKFNIKSSSSSPDSRAVTCGMASLSAEKVTLDQRDYEKYSVSCQEDVTCPTAEETLPIELALEARQQNKYENYSTSFFIRDIIKPDPPKNLQMRPLKNSQVEVSWEYPDSWSTPHSYFSLKFFVRIQRKKEKMKETEEGCNQKGAFLVERTSTEVQCKGGNVCVQAQDRYYNSSCSKWACVPCRVRSGGGGSGGGGSGGGGSRVIPVSGPARCLSQSRNLLKTTDDMVKTAREKLKHYSCTAEDIDHEDITRDQTSTLKTCLPLELHKNESCLATRETSSTTRGSCLPPQKTSLMMTLCLGSIYEDLKMYQTEFQAINAALQNHNHQQIILDKGMLVAIDELMQSLNHNGETLRQKPPVGEADPYRVKMKLCILLHAFSTRVVTINRVMGYLSSAGSADGEVQLLESGGGLVQPGGSLRLSCAASGFTFSSFSMSWVRQAPGKGLEWVSSISGSSGTTYYADSVKGRFTISRDNSKNTLYLQMNSLRAEDTAVYYCAKPFPYFDYWGQGTLVTVSSGSSGGEIVLTQSPGTLSLSPGERATLSCRASQSVSSSFLAWYQQKPGQAPRLLIYYASSRATGIPDRFSGSGSGTDFTLTISRLEPEDFAVYYCQQTGRIPPTFGQGTKVEIKSSSSGSSSSGSSSSGEVQLLESGGGLVQPGGSLRLSCAASGFTFSSFSMSWVRQAPGKGLEWVSSISGSSGTTYYADSVKGRFTISRDNSKNTLYLQMNSLRAEDTAVYYCAKPFPYFDYWGQGTLVTVSSGSSGGEIVLTQSPGTLSLSPGERATLSCRASQSVSSSFLAWYQQKPGQAPRLLIYYASSRATGIPDRFSGSGSGTDFTLTISRLEPEDFAVYYCQQTGRIPPTFGQGTKVEIK
modifications: immunocytokine sequence
- tumor growth (antitumor activity) ([3]; L19-IL12 0.6, 0.9 or […] i.v., alone or with Ruxolitinib 75 mg/kg s.c. 10 min before): effectively prevented tumor growth
- tumor growth (antitumor activity) ([3]; high dose L19-IL12 2.4 or 3 mg/kg i.v., alone or with Ruxolitinib 75 mg/kg s.c.): effectively prevented tumor growth
- weight loss ([4]; L19-IL12 0.6 mg/kg i.v.): caused a weight loss
- weight loss ([4]; L19-IL12 0.9 mg/kg i.v.): more severe toxicity
- weight loss ([4]; L19-IL12 […] i.v.): more severe toxicity
- weight loss ([4]; high dose L19-IL12 2.4 or 3 mg/kg i.v.): > 15%
- outcome of the weight loss for the animals ([4]; high dose L19-IL12 2.4 or 3 mg/kg monotherapy): sacrifice of the mice for ethical reasons
